Data on 30 sequences can be found in the nanobody polyreactivity screen of Harvey et al. (2022).

This data set can be described thus: yeast display, Sf9 membrane polyspecificity reagent, FACS + sequencing; frameworks hold sequencing errors. The method in brief: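 A synthetic nanobody library was expressed on Saccharomyces cerevisiae BJ5465 by galactose induction for 36–48 hours. The library was stained for 1 hour at 4 °C with 10% biotinylated, detergent-solubilized Sf9 membrane reagent and enriched with streptavidin microbeads before FACS. Low and high (top ~1%) gates were set on anti-HA fluorescence for expression and streptavidin fluorescence for reagent binding, and each polyreactivity label reflects the gate of origin.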
Take “QVQLEESGRGLVQAGGSLRLSCAASGFTFSLYAMGWYRQAPGKERELVAAISSRSGSTFYADSVKGRFTISRDNAKNTVYLQMNSLKPEDTAVYYCAARRDWLGGYWGQGTQVTVSS”: the “polyreactivity (PSR sort gate)” value was “high polyreactivity”.

On to “QVQLEESGRGLVQAGGSLRLSCAASGRTFLQYAMGWYRQAPRKERELVAANTTSGGDTYYADSVKGRFTISRDNAKNTVYLQMNSLKPEDTAVYYCNADFRVYIPHVPYFVDFDYWGQGTQVTVSS”, for which the “polyreactivity (PSR sort gate)” value is “low polyreactivity”.

In the case of “QVQLEESGVCLVQAGGSLRLSCAASGYIFISYARGWYREAPGKEREFVAAITGDGGSTYADSEKGRFTISRDNAKNTVYLLMNSLKPEDTAVYYCAVDGYGGEADYEFDHWGQGTQVNVSS”, the “polyreactivity (PSR sort gate)” value is “low polyreactivity”.

“QVQLEESGVGLVQAGGSLRLSCAASGFTFYYNAMGWYRQAPGKERELVAGITWSGGSTYYADSVKGRFTISRDNAKNTVYLQMNSLKPEDTAVYYFAKDHQDSDYDYWGQGTQVTVSS”: the “polyreactivity (PSR sort gate)” value is on record as “high polyreactivity”.

As for “QVQLEESGVGLVQAGGSLRLSCPASGRIIYRNAIVWYSQAPGKERELVAAITGSGGITYYADSVKGRFTISRDNAKNTVYLLMNSLKPEVTAVYYCAARAKFLSVPTYDNWGQGTQVTVSS”, the “polyreactivity (PSR sort gate)” value was “high polyreactivity”.

As for “QVQLEESRGGLVQAGGSLRLSCAASGYTLYEYAMGWYRQAPGKERELDAAITRSGGSTYYADSVKGRFTISRDNAKNTVYLQMNSLKPEDTAVFYCNADIYSRHTVGGYYYWGQGTQVTVSS”, the “polyreactivity (PSR sort gate)” value was “high polyreactivity”.

In the case of “QVQLEESVGGLVQAGGSLRLSCAASGFTFHRYAMGWYTQAPGKERELVAGITRRSGSTFYADSVQGRFTISRDNAKNTVFLQMNSLKPEDTAVYYCAATVPGLHWIYDYWGQGTQVTVSS”, the “polyreactivity (PSR sort gate)” value is given as “high polyreactivity”.

Regarding “QVQLEESVGGLVQAGGSLRLSCAASGRIFTIYAMVSYRQAPGKERELVAAISDRGTRTYYADSVKGRFTISRDNAKNTVYLQMNSLKPDDTAVYYCATDALYTYGYDYWGQGTQVTVSS”, the “polyreactivity (PSR sort gate)” value is given as “low polyreactivity”.

Regarding “QVQLEESWGGLVQAGGSHRLICAASGSTIGYYAMGWYRQAPWKEREFVASITWGGASTDYADSVKGRFTISRDNAKNSVYLQMNSMKPEDTAVYYCAKDNWDNPRPTSEMDYWGQGTQVTVSS”, the “polyreactivity (PSR sort gate)” value is on record as “low polyreactivity”.

For “QVQLEETRGGLVQAGGSLRLSCAASGSIFPYYALGWYRQAAGKERELVASINQTDGTTYYADSVKGRFTISRDNAKNNVYLQMNSLKPDDTAFYYCPADTTLQAFIPYRPIGSYDSWGQGTQVTVSS”, the “polyreactivity (PSR sort gate)” value is “low polyreactivity”.

For “QVQLEVSGGGLVQAGGSLLLSCAASGFTFYFYAMGWSRQATGTERELVAAISRSGSRTYYADSVKGRFTISRDNAKNTVYLQMNSLKPEDTAVYYCARVRPRGLYFVLHYDYWGQGTHVTVSS”, the “polyreactivity (PSR sort gate)” value is given as “high polyreactivity”.

On to “QVQLGDSGGGLGQAGGSLRLSCAASGSTFASDTMGWYRQEPGKERYLVATISRPGGTTNYADSVKGRFTISRDNAKNTVYLQMNSLKPEDTAVFDCARRYPRYDFAYGYDYWGQGTQGTVSS”, for which the “polyreactivity (PSR sort gate)” value is on record as “high polyreactivity”.

Turning to “QVQLGESGAGIVQAGGSLRLSCAASGSTFQTYAMGWYRQAPGKERELVAAITWRGGSTYYAHSVKGRFTISRDNAKNTVYLQMNSLKPEDTAVYYCAAKWLGAHDHRAAYDSWGQGTQVTVSS”, the “polyreactivity (PSR sort gate)” value is reported as “low polyreactivity”.

Consider “QVQLGESGGGLLQAGGSVRLSCAASGRTITANAMGLYRQAPGKERELFATISTRGGRTYYADSVKGRFTISRDNSKNTVYLQMHSLKPEETAVFYGAFTIRAKYTLKEDYWGQGTQVTVSS”, for which the “polyreactivity (PSR sort gate)” value is “low polyreactivity”.

Turning to “QVQLGESGGGLVQAGGRLRLSCAASGYTFGYYTMGWYRQAPGKERELVASIDSGGGTNYADSVKGRFTISRDNAKNTVYLQMNSVKAEDTAVYYCAAESPLYWVDDFESGWRYYYWGQGTQVTVSS”, the “polyreactivity (PSR sort gate)” value is listed as “low polyreactivity”.

For “QVQLGESGGGLVQAGGSHRLICAATASTLGGYAMGWYRQAPGTERELVAAITRSGGSTYYADSVKGRFTISRDNAKNTVYLQMNSLKPEDTSVNYCGADRYSYFNIGYDYWGQGTQVTVSS”, the “polyreactivity (PSR sort gate)” value is recorded as “low polyreactivity”.

“QVQLGESGGGLVQAGGSLGLSCAASGLTFIVYAMGWYRQAPGKERELVADITWSGGSTYYADSVKGRFTISRDNAKNTVYLQMNSLKPEDTAVYYCNRQSGNIMDYWGQGTQVTVSS”: the “polyreactivity (PSR sort gate)” value is reported as “low polyreactivity”.

Turning to “QVQLGESGGGLVQAGGSLRLRCAASGRIFNGYTMGWYRQAPGKERELVAAISRGGSTYYADSVKGRLTISRDNAKNTVYLLMNSLKPEDTAVYYCAASHRFGYEYWGHGTQVTVSS”, the “polyreactivity (PSR sort gate)” value is given as “high polyreactivity”.

In the case of “QVQLGESGGGLVQAGGSLRLSCAAAGFIFRPYAMGWYRQAPGKERELVAVISNSGGSSNYADSVKGRFSISRENAKNTVYLQMNSLKPEDTAVDYCNALVYVPHWWTYYDWGQGTQVTVSS”, the “polyreactivity (PSR sort gate)” value is on record as “high polyreactivity”.

Turning to “QVQLGESGGGLVQAGGSLRLSCAACGSIFKPYAMGWYRQAPGTERELVAAISGIGGSTYYADSVKGRFTISRDTAKNTVYLQMNSLTPEDTAVYYCAADTFFKIFSEYNYWGQGTQVTLSS”, the “polyreactivity (PSR sort gate)” value was “high polyreactivity”.

As to “QVQLGESGGGLVQAGGSLRLSCAASGFIFGYYAMGWYRQAPGKERELVAAINYNDDSTYYADSVKGRFTISRDNAKNTVYLQMNSLKPEDTAVYYCAAGVWYGYYVSIYLDYDYWGQGTQVTLSS”, the “polyreactivity (PSR sort gate)” value is recorded as “low polyreactivity”.

For “QVQLGESGGGLVQAGGSLRLSCAASGGIFIGNAMGWYRQAPGKERELVAAISFSGGSTYYADSVKGRFTISRDNAKNTVYLQMNSLKPEDTAVYYCARRIGHGSRPYWLETWRYPYDYWGQGTQVTVSS”, the “polyreactivity (PSR sort gate)” value is given as “low polyreactivity”.

On to “QVQLGESGGGLVQAGGSLRLSCAASGGILGYNAMGWYRQAPGKERELVATINWSGGSTYADSVKGRFTISRDNAKNTVYLQRNSLKPEDTADSYCNAVRKYWRQGTQVTVSS”, for which the “polyreactivity (PSR sort gate)” value was “low polyreactivity”.

Turning to “QVQLGESGGGLVQAGGSLRLSCAASGIIFGYYAMGWYRQAPGKERELVAAITWSGGSTYYADSVKGRFTISRDNAKYTVYLQMNSLKPEDTAVYYCAASAYVQPYDYWGQGTQVTVSS”, the “polyreactivity (PSR sort gate)” value is on record as “high polyreactivity”.

As to “QVQLGESGGGLVQAGGSLRLSCAASGITFNGYAMGWSRQAPGKERQLVASAIRGTSGSTYYADSVKGRFTISRDNAKNTDYLQMNSLKPEDTTVYYCNADIVIQGVIYYYRNFEYWGQGTQVTVSS”, the “polyreactivity (PSR sort gate)” value is on record as “low polyreactivity”.

Turning to “QVQLGESGGGLVQAGGSLRLSCAASGLTFYLYAMGWYRQAPGKERELVAAITTSGGSTYYADSVKGRFTISRDTAKNTVYLQMNSLKPEDTAVYYCATQGALRGYGYWGQGTQVTVSS”, the “polyreactivity (PSR sort gate)” value is given as “high polyreactivity”.

On to “QVQLGESGGGLVQAGGSLRLSCAASGLTFYLYVMGWYRQAPGTERELVAAISRRGGSTYYADSVKGRFTISRDNAKNTVYLQMNSLNPEDTAVYYCAASVYGTYRGIQYGYWGQGTQVTVSS”, for which the “polyreactivity (PSR sort gate)” value is recorded as “high polyreactivity”.

Regarding “QVQLGESGGGLVQAGGSLRLSCAASGRIFQHNTMGWYRQAPGKEREFVAAIRRSGGSTYYADSVKGRFTISRDNAKNTVYLQMNSLKPEDTAVYYCAARDYPTGTRRWGGGDSWGQGTQVTLSS”, the “polyreactivity (PSR sort gate)” value is recorded as “low polyreactivity”.

Consider “QVQLGESGGGLVQAGGSLRLSCAASGRIFRTNAMGWYRQAPGKERELVAAITFSGGGTYYADSVKGRFTISRDNAKNTVYLQMNSLKPEDTAVYYCATDWYYEYYDWGQGTQVTVSS”, for which the “polyreactivity (PSR sort gate)” value is reported as “low polyreactivity”.

Regarding “QVQLGESGGGLVQAGGSLRLSCAASGRTLSYYAMGWYRPAPGNDRELVAAISGSAGSTYYADSVKGRFTISRDNAKNTVYLQMNSLKPEDTAVYYCAAYIYSYDEGYYWGQGTQVTVSS”, the “polyreactivity (PSR sort gate)” value is given as “high polyreactivity”.
